In article PMC3613695 (The Journal of Cell Biology, 2013):

B1: Vab2 with C-terminal TAP tag (natural protein)
chain: MVADLTKGILKWKSRIEFDAVGSSSYYEELKGLPPLASHKKLTQAAIFNSTKYELLQVKKDILSIYEVVSRDIDEERNQMQQIELQLKKSLKKVEHSYKNVLKQRASTNCINGNDRLLANAEKKIGSLNEELACVNDIVSDIVNNLTALNANLPKKAQLLKDDSINVAHYPLLFDFLHKSCPKSIIATSEASIHENASPSPLLEHDELPAESINSFYGENELQSDSLAPLQTHDDNISSCKKILPPKFNTTSGPSIETNFENISADGLTYTKCSLKNSISLT
B2: Kxd1 (BLOC-1 subunit), overexpressed (natural protein, yeast, UniProt P53158 1-218, looked up)
chain: MVTGISEENDDEETFSAVHSSTPSINSQSYAIPITEEMSSSFHDSISTTSNSSGSFDSDGSNVSDVVEQNEMDNESNVDEDLFLDNDIPQSSNLLPTDAQDPGPIFDVSRYIFDSLKQSIDSADFSEALSLQTKTSAVINSKSLELKQYIDEMKSRLTQLQEKFENGEATSKKIKRDLETSRKNIDYLNAALRVDFPIEFNQAREKILERRLNEDHDC
B3: Cnl1 (BLOC-1 subunit), overexpressed (natural protein, yeast, UniProt Q06333 1-122, looked up)
chain: MQDNSSHSRESASAGDDPLGIDKLTVDYDYLLYKMRDYVQSIQLDTTELCKKQNEVMVNGIIENTIDKNIAKFKELLEKCDTLENHYEMLNQLAIITDTFKERIAEAVNNYNSLKKGASKSK
B4: Bls1 (BLOC-1 subunit), overexpressed (natural protein, yeast, UniProt Q06071 1-122, looked up)
chain: MFLTFSMCVNWIIVKMPNRSEELDRLLDKIINSPHRTEASKTLQEIENNQSYILNVQLKKLLRLHDDSFKNKCVSPINYMLEKYTPYMGHTEALQKEAELVDRDLRILEMTYQLIEKNRNSK
B5: Bli1 (BLOC-1 subunit), overexpressed (natural protein, yeast, UniProt P35727 1-113, looked up)
chain: MGEQNKLYYDVEKLVNSLQESFDLDCAQSVSLFTSKSRSNEAWLEELENKFKLKDDVELDDVENLRAEIDMKLNMLEDKVSYYERLYKELEEFQNEIKIKTVVNNRRQSRTPK

Experiments:
[1] = biological target: Snn1 (BLOC-1 subunit), overexpressed (yeast, UniProt P48232 1-102); assay: affinity purification with mass spectrometry
[2] = biological target: B1; assay: SEC
[3] = biological target: B1; assay: affinity purification with mass spectrometry

Row | binding result [3] | Binder | other results
1 |  | B1 | binding result [1]: binds
2 |  | B2 | binding result [2]: binds
3 | binds | B3 | 
4 | binds | B4 | 
5 | binds | B5 | 
